Assay [1] has as its target T1, DCAF15-3xFLAG (human, UniProt Q66K64 1-600).
T1 construct: also called DDB1/DCAF15-3xFLAG; not shown: C-terminal 3xFLAG tag
Description: pull-down of 100 nM RBM39Δ150 P272S by DCAF15-3xFLAG on anti-FLAG beads with rising indisulam, western blot (FIG. 4C). (In general: Immunoblotting shows a protein as a band on a membrane.)

Assay [2] has as its target T1, DCAF15-3xFLAG. Description: pull-down by DCAF15-3xFLAG on anti-FLAG beads, western blot (FIG. 4C).
For another assay, the target named is T2, CUL4A (human, UniProt Q13619 1-759, limits assumed).
T2 construct: also called Cullin 4A
Description: anti-FLAG co-immunoprecipitation from HCT-116 cells, western blot (FIG. 3E).

A further assay deals with T3, CUL4B (human, UniProt Q13620 1-913, limits assumed).
T3 construct: also called Cullin 4B
The description is as above.

The target of the next assay is T4, DDB1 (human, UniProt Q16531 2-1140).
T4 construct: also called Q16531_DDB1_HUMAN
As to the kind of experiment: anti-FLAG immunopurification from HCT-116 lysate supplemented with indisulam, western blot (FIG. 4A).

Changes are numbered by the printed parent chain. Names may count otherwise.

T1 sequence (Q66K64 whole entry): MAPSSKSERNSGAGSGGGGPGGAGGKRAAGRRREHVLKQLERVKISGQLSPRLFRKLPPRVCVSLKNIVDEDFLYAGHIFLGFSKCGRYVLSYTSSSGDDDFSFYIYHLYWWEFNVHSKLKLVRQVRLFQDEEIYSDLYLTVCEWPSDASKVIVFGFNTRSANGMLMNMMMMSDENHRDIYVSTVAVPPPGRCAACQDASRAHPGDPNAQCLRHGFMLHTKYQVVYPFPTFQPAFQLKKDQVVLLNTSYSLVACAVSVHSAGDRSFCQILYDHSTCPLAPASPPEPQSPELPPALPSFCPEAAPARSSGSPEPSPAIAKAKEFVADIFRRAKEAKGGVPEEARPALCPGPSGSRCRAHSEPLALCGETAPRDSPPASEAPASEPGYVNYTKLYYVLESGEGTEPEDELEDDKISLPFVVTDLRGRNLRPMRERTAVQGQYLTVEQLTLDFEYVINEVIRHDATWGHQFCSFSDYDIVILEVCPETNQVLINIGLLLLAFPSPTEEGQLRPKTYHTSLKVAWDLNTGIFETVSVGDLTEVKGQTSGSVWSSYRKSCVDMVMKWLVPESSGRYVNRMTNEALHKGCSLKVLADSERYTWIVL
T4 sequence (Q16531 2-1140 limits assumed): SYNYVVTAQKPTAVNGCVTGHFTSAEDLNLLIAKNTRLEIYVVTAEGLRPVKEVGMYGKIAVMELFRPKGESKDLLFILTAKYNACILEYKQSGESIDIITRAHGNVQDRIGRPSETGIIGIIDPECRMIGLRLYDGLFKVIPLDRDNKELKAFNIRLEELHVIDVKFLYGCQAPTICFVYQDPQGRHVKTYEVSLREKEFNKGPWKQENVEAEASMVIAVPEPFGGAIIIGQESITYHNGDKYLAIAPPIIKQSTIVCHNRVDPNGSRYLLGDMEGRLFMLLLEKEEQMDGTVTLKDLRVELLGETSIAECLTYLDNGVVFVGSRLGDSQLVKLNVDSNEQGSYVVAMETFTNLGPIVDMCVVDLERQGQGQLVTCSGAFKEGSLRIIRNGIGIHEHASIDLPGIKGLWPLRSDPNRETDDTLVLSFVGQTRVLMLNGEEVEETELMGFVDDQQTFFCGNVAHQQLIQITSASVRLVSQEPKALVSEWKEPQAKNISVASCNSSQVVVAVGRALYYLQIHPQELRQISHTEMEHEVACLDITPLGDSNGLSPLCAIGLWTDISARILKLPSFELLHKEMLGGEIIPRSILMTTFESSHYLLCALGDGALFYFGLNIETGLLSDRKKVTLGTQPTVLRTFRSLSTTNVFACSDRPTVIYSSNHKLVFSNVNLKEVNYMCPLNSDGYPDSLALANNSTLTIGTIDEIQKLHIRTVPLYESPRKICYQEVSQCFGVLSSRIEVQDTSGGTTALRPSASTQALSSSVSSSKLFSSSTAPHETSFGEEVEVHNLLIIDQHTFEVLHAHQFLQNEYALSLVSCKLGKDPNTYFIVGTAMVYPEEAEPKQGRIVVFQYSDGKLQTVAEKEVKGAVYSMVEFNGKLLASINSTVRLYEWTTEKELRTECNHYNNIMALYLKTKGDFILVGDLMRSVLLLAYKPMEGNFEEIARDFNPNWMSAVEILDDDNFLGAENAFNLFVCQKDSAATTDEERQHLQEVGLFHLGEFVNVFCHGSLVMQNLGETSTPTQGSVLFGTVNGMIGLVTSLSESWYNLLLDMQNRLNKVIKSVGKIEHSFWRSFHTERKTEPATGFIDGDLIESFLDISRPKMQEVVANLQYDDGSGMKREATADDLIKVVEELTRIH
T3 sequence (Q13620 whole entry): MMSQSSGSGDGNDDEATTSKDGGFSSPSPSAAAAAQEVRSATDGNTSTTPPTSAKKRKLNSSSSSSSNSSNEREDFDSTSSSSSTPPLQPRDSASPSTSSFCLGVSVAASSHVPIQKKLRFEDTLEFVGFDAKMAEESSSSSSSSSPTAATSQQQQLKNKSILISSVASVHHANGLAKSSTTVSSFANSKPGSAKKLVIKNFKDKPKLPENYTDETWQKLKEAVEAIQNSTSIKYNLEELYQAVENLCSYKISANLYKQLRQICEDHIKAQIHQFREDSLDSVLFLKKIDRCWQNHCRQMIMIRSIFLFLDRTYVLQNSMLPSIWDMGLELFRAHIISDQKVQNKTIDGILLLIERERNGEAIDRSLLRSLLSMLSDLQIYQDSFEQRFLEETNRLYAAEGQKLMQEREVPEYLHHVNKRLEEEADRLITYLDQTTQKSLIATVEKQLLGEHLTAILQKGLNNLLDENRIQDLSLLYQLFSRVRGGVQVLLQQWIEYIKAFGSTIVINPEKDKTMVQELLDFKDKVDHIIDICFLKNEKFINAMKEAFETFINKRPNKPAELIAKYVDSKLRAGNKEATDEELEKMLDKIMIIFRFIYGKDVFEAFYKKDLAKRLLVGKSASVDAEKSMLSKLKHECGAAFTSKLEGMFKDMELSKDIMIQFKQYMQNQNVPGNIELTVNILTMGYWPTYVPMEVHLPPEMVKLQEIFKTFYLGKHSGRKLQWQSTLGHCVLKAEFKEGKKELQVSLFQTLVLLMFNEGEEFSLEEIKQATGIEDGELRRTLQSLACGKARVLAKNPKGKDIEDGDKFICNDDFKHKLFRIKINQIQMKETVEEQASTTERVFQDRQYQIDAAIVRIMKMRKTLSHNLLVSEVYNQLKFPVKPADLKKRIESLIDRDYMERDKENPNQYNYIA
T2 sequence (Q13619 whole entry): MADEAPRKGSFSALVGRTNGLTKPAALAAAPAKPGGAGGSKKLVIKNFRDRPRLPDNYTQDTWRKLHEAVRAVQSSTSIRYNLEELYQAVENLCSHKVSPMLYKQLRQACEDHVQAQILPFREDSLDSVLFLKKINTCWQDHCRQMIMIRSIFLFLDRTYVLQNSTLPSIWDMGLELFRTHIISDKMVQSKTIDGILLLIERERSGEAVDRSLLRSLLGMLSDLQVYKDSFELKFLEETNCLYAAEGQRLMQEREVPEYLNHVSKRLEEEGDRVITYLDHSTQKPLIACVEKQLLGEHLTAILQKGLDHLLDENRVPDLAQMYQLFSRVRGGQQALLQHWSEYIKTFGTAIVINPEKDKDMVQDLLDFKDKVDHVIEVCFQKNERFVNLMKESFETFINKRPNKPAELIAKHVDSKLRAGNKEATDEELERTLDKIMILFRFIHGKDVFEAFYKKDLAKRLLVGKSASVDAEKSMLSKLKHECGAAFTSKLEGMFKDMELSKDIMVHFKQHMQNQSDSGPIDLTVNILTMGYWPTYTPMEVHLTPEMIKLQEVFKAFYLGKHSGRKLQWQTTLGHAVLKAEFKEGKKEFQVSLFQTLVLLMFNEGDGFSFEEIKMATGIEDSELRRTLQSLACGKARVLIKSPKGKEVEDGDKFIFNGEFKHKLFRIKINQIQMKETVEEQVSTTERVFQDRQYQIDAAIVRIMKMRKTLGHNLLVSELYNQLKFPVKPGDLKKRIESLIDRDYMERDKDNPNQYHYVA

B1: RBM39Δ150 P272S (other, human, UniProt Q14498 151-530, looked up)
chain: DARTVFCMQLAARIRPRDLEEFFSTVGKVRDVRMISDRNSRRSKGIAYVEFVDVSSVPLAIGLTGQRVLGVPIIVQASQAEKNRAAAMANNLQKGSAGPMRLYVGSLHFNITEDMLRGIFESFGRIESIQLMMDSETGRSKGYGFITFSDSECAKKALEQLNGFELAGRPMKVGHVTERTDASSASSFLDSDELERTGIDLGTTGRLQLMARLAEGTGLQIPPAAQQALQMSGSLAFGAVAEFSFVIDLQTRLSQQTEASALAAAASVQPLATQCFQLSNMFNPQTEEEVGWDTEIKDDVIEECNKHGGVIHIYVDKNSAQGNVYVKCPSIAAAIAAVNALHGRWFAGKMITAAYVPLPTYHNLFPDSMTATQLLVPSRR
notes: domain: RRM1, RRM2, and RRM3 domains; Sf9 expression as for RBM39Δ150
As to B1, in the assay with DCAF15-3xFLAG [1], the “fold higher indisulam concentration required for recruitment, against wild type RBM39Δ150” value worked out at 100 fold.

B2: RBM39Δ150 E271Q (other, human, UniProt Q14498 151-530, looked up)
chain: B1 chain with E121Q, S122P
notes: domain: RRM1, RRM2, and RRM3 domains; Sf9 expression as for RBM39Δ150; also called E271Q variant of RBM39Δ150
Take B2: in the assay with DCAF15-3xFLAG [2], the binding result was “no binding (tested: 10 µM indisulam)”.

B3: RBM39 G268V-3xFLAG (other, human, UniProt Q14498 1-530, looked up)
chain: MADDIDIEAMLEAPYKKDENKLSSANGHEERSKKRKKSKSRSRSHERKRSKSKERKRSRDRERKKSKSRERKRSRSKERRRSRSRSRDRRFRGRYRSPYSGPKFNSAIRGKIGLPHSIKLSRRRSRSKSPFRKDKSPVREPIDNLTPEERDARTVFCMQLAARIRPRDLEEFFSTVGKVRDVRMISDRNSRRSKGIAYVEFVDVSSVPLAIGLTGQRVLGVPIIVQASQAEKNRAAAMANNLQKGSAGPMRLYVGSLHFNITEDMLRVIFEPFGRIESIQLMMDSETGRSKGYGFITFSDSECAKKALEQLNGFELAGRPMKVGHVTERTDASSASSFLDSDELERTGIDLGTTGRLQLMARLAEGTGLQIPPAAQQALQMSGSLAFGAVAEFSFVIDLQTRLSQQTEASALAAAASVQPLATQCFQLSNMFNPQTEEEVGWDTEIKDDVIEECNKHGGVIHIYVDKNSAQGNVYVKCPSIAAAIAAVNALHGRWFAGKMITAAYVPLPTYHNLFPDSMTATQLLVPSRR
notes: From HCT-116 cells; for the ubiquitination assay expressed from pCDNA3.1 in 293T cells; also called RBM39-3xFLAG G268V; not shown: C-terminal 3xFLAG tag
Consider B3, for which the binding result in the assay with CUL4A, with CUL4B and with DDB1 was “no binding (tested: 10 µM indisulam)” throughout.

Source of the values: patent US20180140578A1 (University of Texas, published 2018).
